Source: patent publication US20250027068

B1: PRT-682 (protein)
chain: MQITSVWTKGVTPLTPEQFRNNNEDVIHAPYLANQGWYDITKTFNGKDNLLCGAATAGNMLHWWFDQNKTEIEAYLKKHPEKQKIIFNNQELFDLKKAIDTKDSQTNSQLFNYFRDKAFPNLSARQLGVMPDLVLDMFINGYYLNVFKTQSTDVNRPYQDKDKRGGIFDAVFTRGDQTTLLTSRHDLKNKGLNEISDIIKQELTEGKALALSHTYANVSISHVINLWGADFNAEGNLEAIYVTDSDANASIGMKKYFVGVNAHGKVAISAKKIEGENIGAQVLGLFTLSSGKDIWQKLSLEHHHHHH
B2: PRT-496 (protein)
chain: MVTSVWTKGVTPPTDFIKGEDVFHAPYKAGQGWYDITKTFNGKDDLLCGAATAGNMLHWWFDQNKEYIEAYLKKHPEKQKIMFGDQELLDVRKAINTKGSQKNSELFNYFRDKAFPNLSARRLGVMPDLVLDMFINGYYLNVTKTQTTDVNRTYQEKDKRGGIFDAVFTRGDQSKLLTSRHDLKNKGLKEISDLIKQELTEGKALGLSHTYANVRINHVINLWGADFDSDGNLKAIYVTDSDSNASIGMKKYFVGVNSAGKVAISAKEIKEDNIGAQVLGLFTLSTGQDIWNQTNLEHHHHHH
B3: PRT-503 (protein)
chain: MITSVWTKGVTPPTDFIKGEDVFHAPYKAGQGWYDITKAFDGGDDLLCGAATAGNMLHWWFDQNKEYIEAYLKKHPEKQKIMFGDQELLDVRKAINTKGSQKNSELFNYFRDKAFPNLSARRLGVMPDLVLDMFINGYYLNVTKTQTTDVNRQEQEKDKRGGIFDAVFGRGDQTKLLTSRHDLKNKGLNEISQLIKQELTEGKALGLSHTYANVRINHVINLWGADFDADGNLEAIYVTDSDSNASIGMKKYFVGVNSAGKVAISAKEIKEDNIGAQVLGLFTLSTGQKIWNKTNLEHHHHHH
B4: PRT-460 (protein)
chain: MVTSVWTKGVTPPTDFIKGEDVFHAPYKAGQGWYDITKTFNGKDDLLCGAATAGNMLHWWFDQNKDQIERYLKEHPEKQKINFNGEQMFDVKEAIDTKDSQTDSKLFEYFKEKAFPYLSTKHLGVFPDHVLDMFINGYRLSLTNHGPTPVKEGSKDPRGGIFDAVFTRGDQSKLLTSRHDLKNKTLKEISDLIKQELTEGKALGLSHTYANVRINHVINLWGADFDSEGNLKAIYVTDSDSNASIGMKKYFVGVNSAGKVAISAKEIKEDNIGAQVLGLFTLSTGQDIWNQTNLEHHHHHH
B5: PRT-513 (protein)
chain: MITSVWTKGVTPPAKFTQGEDVFHAPYVANQGWYDITKTFNGKDDLLCGAATAGNMLHWWFDQNKEEIEAYLKKHPEKQKIMFGDQELLDVRKVINTKDSQTNSALFNYFKDKAFPNLSARRLGVMPDLVLDMFINGYYLNVYKTQTTDVNRTYQTKDRRGGIFDAVFTRGDQSKLLTERHDLKNKTLKEISDLIKQELTEGKALGLSHTYANVRINHVINLWGADFDSNGNLEAIYVTDSDSNASIGMKKYFVGVNSAGKVAISAKEIKEDNIGAQVLGLFTLSTGQDIWNQTNLEHHHHHH
B6: PRT-508 (protein)
chain: MITSVWTKGVTPPTDFIKGEDVFHAPYKAGQGWYDITKTFNGKDDLLCGAATAGNMLHWWFDQNKEEIEAYLKKHPEKQKIMFGDQELLDVRKVINTKDSQTNSALFNYFKDKAFPNLSARRLGVMPDLVLDMFINGYYLNVYKTQTTDVNRTYQTKDRRGGIFDAVFTRGDQSKLLTERHDLKNKTLKEISDLIKQELTEGKALGLSHTYANVRINHVINLWGADFDSNGNLEAIYVTDSDSNASIGMKKYFVGVNSAGKVAISAKEIKEDNIGAQVLGLFTLSTGQDIWNQTNLEHHHHHH
B7: PRT-482 (protein)
chain: MVTSVWTKGVTPPTDFIKGEDVFHAPYKAGQGWYDITKTFNGKDNLLCGAATAGNMLHWWFDQNKDQIEAYLKEHPEKQKIIFNNQELFDLKAAIDTKDDQTNSKLFEYFKEKAFPYLSTKHLGVFPDHVLDMFINGYRLSLTNHGPTPVKEGSKDKRGGIFDAVFTRGVQSKLLTSRHDFKEKTLKEISDLIKQELTEGKALALSHTYANVRINHVINLWGADFDSNGNLEAIYVTDSDTNASIGMKKYFVGVNSAGKVAISAKEIEDDNIGAQVLGLFTLSTGQDIWNQTNLEHHHHHH
B8: PRT-466 (protein)
chain: MITSVWTKGVTPPTDFIKGEDVFHAPYKAGQGWYDITKAFDGGDDLLCGAATAGNMLHWWFDQNKDQIERYLKEHPEKQKINFNGEQMFDVKEAIDTKDSQTNSELFNYFKEKAFPYLSTKHLGVFPDHVLDMFINGYRLSLTNHGPTPVKRQEKDPRGGIFDAVFGRGDQTKLLTSRHDFKEKTLNEISQLIKQELTEGKALGLSHTYANVRINHVINLWGADFDAEGNLEAIYVTDSDSNASIGMKKYFVGVNSAGKVAISAKEIKEDNIGAQVLGLFTLSTGQKIWNKTNLEHHHHHH
B9: PRT-455 (protein)
chain: MITSVWTKGVTPPTDFIKGEDVFHAPYKAGQGWYDITKAFDGGDDLLCGAATAGNMLHWWFDQNKDQIEAYLKEHPEKQKINFNGEQMFDVKEAIDTKDDQTNSELFNYFKEKAFPYLSTKHLGVFPDHVLDMFINGYRLSLTNHGPTPVKRQEKDPRGGIFDAVFGRGDQTKLLTSRHDLKNKTLNEISQLIKQELTEGKALALSHTYANVRINHVINLWGADFDAEGNLEAIYVTDSDSNASIGMKKYFVGVNSAGKVAISAKEIEDDNIGAQVLGLFTLSTGQKIWNKTNLEHHHHHH
B10: PRT-677 (protein)
chain: MQITSVWTKGVIPPTMDQFRYNNYDVFHAPYLPHQGWYDITKTFDGGDNLLCGAATAGNMLHWWFDQNKEYIENYLKKYPEKQKIIFNNQELFDLRKAINTKDSQTNSELFNYFRDKAFGNLSARQKGVMPDLVLDMFINGYYLNLFKTQSTDVNRPNDTRDKRGGFFDHVFGRGDQTKLLTARHDLYNGGLSDISQLIKQELQSGKALAISHTYGNVSSSHVINLWGADFDAEGNLEAIYVTDSDDRSSIGMKKYYVGINASGKVAISAKKIEGENVGAQVLGLFTLSSGKEIWKKLSLEHHHHHH

Target: pooled human IgG (human IgG1,2,3 and 4)

| Protein | Enzyme Activity Endpoint Assay: Fab′2 | Enzyme Activity Endpoint Assay: Fc | Enzyme Activity Endpoint Assay: IgG | Enzyme Activity Endpoint Assay: scIgG |
| --- | --- | --- | --- | --- |
| B1 | 0 ng/µL | 0 ng/µL | 0 ng/µL | 0 ng/µL |
| B2 | 190 ng/µL | 192 ng/µL | 0 ng/µL | 0 ng/µL |
| B3 | 0 ng/µL | 0 ng/µL | 0 ng/µL | 0 ng/µL |
| B4 | 49 ng/µL | 108 ng/µL | 26 ng/µL | 64 ng/µL |
| B5 | 397 ng/µL | 367 ng/µL | 374 ng/µL | 0 ng/µL |
| B6 | 0 ng/µL | 0 ng/µL | 0 ng/µL | 0 ng/µL |
| B7 | 261 ng/µL | 322 ng/µL | 146 ng/µL | 738 ng/µL |
| B8 | 404 ng/µL | 362 ng/µL | 161 ng/µL | 303 ng/µL |
| B9 | 872 ng/µL | 416 ng/µL | 0 ng/µL | 333 ng/µL |
| B10 | 0 ng/µL | 0 ng/µL | 0 ng/µL | 0 ng/µL |
